Measurements taken from patent US20170035877A1.

Tests used:
[1] = molecular target: 16055 SOSIP.663 trimer, negatively selected (flow-through of the GE136 column) (HIV-1 16055 (subtype C)); assay: negative-stain EM, 2D class averages
[2] = molecular target: JRFL SOSIP.663 trimer, negatively selected (flow-through of the F105 column) (HIV-1 JRFL (subtype B)) (UniProt P20871); assay: negative-stain EM, 2D class averages
[3] = molecular target: 16055 gp120 (HIV-1 16055 (subtype C))
[4] = molecular target: 16055 SOSIP.663 trimer, negatively selected (flow-through of the GE136 column) (HIV-1 16055 (subtype C)); assay: negative-stain EM, stoichiometry from micrographs
[5] = molecular target: JRFL SOSIP.663 trimer, negatively selected (flow-through of the F105 column) (HIV-1 JRFL (subtype B)) (UniProt P20871); assay: negative-stain EM, stoichiometry from micrographs
[6] = molecular target: 16055 SOSIP (HIV-1 16055 (subtype C)); assay: ITC; conditions: Fab

## 19b Fab
[1]
  percent of trimers with one Fab bound: 22%
[2]
  percent of trimers with one Fab bound: 25%

## F105
[3]
  Kd: 30.2 nM

## PGT151 Fab
[4]
  percent of trimers with one Fab bound: 34%
  percent of trimers with three Fabs bound: 0%
  percent of trimers with two Fabs bound: 20%
[5]
  percent of trimers with one Fab bound: 28%
  percent of trimers with three Fabs bound: 11%
  percent of trimers with two Fabs bound: 36%

## VRC01 Fab
[6]
  Kd: 97 nM
